The values that follow come from patent publication US20220229068A1, “DETECTION OF PROTEIN TO PROTEIN INTERACTIONS” (THE GOVERNING COUNCIL OF THE UNIVERSITY OF TORONTO, priority 2019, published 2022).

Assay in all cases: SIMPL ELISA, bait-IN/prey-CIC
For assay [1], the target named is BCL2L1 (prey, CIC format) (human) (UniProt Q07817).
The target of assay [2] is GRB2 (prey, CIC format) (human) (UniProt P62993).
The target in assay [3] is TNFRSF10B (prey, CIC format) (human) (UniProt O14763).
For assay [4], the target named is NFE2L1 (prey, CIC format) (human) (UniProt Q14494).
Chain of NFE2L1 (prey, CIC format) (human) (Q14494 whole entry): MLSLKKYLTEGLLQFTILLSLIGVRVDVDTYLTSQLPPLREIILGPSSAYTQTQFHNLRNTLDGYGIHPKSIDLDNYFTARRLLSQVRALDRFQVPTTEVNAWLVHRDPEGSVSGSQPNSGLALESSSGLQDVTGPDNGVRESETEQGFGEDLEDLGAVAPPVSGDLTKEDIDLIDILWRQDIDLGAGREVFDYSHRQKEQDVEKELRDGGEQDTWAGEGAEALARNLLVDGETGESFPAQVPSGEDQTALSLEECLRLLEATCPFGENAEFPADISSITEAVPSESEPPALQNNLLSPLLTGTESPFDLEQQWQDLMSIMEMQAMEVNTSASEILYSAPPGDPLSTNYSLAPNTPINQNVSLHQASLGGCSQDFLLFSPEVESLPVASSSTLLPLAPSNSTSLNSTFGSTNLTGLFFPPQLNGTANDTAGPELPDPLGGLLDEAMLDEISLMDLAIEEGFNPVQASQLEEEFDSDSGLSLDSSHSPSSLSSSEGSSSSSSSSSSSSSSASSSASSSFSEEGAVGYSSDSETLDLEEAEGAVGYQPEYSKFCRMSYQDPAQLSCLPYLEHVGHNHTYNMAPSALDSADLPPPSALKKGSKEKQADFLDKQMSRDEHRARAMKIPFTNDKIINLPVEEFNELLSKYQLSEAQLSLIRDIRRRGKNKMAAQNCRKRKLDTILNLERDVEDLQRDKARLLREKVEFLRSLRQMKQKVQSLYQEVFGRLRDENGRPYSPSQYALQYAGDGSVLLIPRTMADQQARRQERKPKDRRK
Assay [5] deals with T1, PEX11B (prey, CIC format) (human) (UniProt O96011).
T1 sequence (looked up): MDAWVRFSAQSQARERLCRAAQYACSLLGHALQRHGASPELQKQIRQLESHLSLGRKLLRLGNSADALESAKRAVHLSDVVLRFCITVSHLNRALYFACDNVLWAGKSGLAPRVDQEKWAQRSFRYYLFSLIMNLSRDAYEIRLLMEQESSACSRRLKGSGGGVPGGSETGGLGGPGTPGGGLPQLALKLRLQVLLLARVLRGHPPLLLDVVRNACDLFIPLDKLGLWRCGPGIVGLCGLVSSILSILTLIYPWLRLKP

Assay [6] deals with DDIT3 (prey, CIC format) (human) (UniProt P35638).
Chain of DDIT3 (prey, CIC format) (human) (P35638 whole entry): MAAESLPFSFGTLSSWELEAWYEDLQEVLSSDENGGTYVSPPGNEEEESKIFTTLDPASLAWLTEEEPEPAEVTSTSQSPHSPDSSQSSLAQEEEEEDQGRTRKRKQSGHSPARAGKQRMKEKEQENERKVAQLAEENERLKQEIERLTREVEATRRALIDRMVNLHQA
The target in assay [7] is T2, NRG1 (prey, CIC format) (human) (UniProt Q02297).
T2 sequence (looked up): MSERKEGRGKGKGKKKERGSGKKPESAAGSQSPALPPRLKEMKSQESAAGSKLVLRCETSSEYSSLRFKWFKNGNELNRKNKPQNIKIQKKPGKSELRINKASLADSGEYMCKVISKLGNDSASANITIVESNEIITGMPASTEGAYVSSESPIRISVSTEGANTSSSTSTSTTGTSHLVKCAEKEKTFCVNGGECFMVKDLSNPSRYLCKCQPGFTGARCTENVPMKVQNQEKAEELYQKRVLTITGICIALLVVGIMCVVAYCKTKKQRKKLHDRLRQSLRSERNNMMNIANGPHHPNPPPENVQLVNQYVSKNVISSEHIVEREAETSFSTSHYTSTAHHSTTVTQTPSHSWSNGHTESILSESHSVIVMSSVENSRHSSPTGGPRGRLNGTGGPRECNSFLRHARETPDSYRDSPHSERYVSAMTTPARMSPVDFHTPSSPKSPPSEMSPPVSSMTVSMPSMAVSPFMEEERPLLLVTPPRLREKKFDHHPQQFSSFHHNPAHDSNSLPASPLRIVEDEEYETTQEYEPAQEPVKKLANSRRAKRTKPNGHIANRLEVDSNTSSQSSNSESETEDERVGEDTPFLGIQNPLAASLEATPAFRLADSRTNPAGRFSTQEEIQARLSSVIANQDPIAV

Assay [8] addresses PCNA (prey, CIC format) (human) (UniProt P12004).
For assay [9], the target named is T3, MCM5 (prey, CIC format) (human) (UniProt P33992).
T3 sequence (looked up): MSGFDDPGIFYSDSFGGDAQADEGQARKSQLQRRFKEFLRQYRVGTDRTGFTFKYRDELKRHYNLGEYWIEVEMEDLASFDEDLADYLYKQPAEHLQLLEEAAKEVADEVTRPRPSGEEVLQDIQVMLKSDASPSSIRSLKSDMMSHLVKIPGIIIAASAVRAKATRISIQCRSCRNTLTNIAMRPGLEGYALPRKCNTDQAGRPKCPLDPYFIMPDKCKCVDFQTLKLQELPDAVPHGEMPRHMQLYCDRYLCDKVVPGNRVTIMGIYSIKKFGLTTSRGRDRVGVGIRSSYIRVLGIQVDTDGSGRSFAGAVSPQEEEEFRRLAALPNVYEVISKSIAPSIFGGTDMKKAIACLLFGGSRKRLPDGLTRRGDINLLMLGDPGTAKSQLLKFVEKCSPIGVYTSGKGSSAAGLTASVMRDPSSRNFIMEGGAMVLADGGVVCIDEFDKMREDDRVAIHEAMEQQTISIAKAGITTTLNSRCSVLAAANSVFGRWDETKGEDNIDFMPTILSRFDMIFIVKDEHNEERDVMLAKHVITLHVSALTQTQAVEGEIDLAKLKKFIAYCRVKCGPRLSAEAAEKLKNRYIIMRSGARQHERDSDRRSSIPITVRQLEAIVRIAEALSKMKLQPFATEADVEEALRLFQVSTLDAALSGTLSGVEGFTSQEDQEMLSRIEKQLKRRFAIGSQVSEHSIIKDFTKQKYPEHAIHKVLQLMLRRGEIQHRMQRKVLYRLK

Assay [10] has as its target T4, S100B (prey, CIC format) (human) (UniProt P04271).
T4 sequence (looked up): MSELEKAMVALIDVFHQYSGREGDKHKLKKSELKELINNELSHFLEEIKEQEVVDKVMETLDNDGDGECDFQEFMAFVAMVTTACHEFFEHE

Assay [11] deals with MCM3 (prey, CIC format) (human) (UniProt P25205).
Chain of MCM3 (prey, CIC format) (human) (P25205 whole entry): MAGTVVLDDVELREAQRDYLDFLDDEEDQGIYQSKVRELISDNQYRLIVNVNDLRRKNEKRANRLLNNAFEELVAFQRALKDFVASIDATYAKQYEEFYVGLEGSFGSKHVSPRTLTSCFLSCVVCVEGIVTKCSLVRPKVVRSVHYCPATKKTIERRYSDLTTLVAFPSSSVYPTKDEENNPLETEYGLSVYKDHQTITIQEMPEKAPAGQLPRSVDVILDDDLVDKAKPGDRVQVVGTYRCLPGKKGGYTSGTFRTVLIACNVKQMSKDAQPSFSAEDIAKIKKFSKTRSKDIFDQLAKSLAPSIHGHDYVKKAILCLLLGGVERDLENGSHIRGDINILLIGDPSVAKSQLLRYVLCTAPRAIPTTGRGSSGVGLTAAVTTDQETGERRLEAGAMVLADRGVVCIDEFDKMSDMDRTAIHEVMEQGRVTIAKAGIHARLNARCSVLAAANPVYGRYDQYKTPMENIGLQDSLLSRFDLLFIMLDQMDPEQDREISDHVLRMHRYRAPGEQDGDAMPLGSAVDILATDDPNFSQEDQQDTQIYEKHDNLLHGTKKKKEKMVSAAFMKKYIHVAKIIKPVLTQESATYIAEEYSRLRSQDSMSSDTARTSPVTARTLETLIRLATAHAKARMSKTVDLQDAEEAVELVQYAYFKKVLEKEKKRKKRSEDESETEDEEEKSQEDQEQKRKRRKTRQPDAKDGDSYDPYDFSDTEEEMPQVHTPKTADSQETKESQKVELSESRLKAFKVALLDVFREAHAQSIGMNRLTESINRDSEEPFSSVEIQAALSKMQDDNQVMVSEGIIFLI
Assay [12] concerns the target CCNA1 (prey, CIC format) (human) (UniProt P78396).
Assay [13] concerns the target T5, DRAP1 (prey, CIC format) (human) (UniProt Q14919).
T5 sequence (looked up): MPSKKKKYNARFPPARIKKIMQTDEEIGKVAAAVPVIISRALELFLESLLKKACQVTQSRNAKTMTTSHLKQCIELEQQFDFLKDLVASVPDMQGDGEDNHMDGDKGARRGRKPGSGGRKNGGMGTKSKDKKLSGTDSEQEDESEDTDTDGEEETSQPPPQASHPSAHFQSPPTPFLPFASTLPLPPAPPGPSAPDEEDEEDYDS

Assay [14] concerns the target CKS1B (prey, CIC format) (human) (UniProt P61024).
Assay [15] concerns the target GRAP2 (prey, CIC format) (human) (UniProt O75791).
For assay [16], the target named is T6, DCP1A (prey, CIC format) (human) (UniProt Q9NPI6).
T6 sequence (looked up): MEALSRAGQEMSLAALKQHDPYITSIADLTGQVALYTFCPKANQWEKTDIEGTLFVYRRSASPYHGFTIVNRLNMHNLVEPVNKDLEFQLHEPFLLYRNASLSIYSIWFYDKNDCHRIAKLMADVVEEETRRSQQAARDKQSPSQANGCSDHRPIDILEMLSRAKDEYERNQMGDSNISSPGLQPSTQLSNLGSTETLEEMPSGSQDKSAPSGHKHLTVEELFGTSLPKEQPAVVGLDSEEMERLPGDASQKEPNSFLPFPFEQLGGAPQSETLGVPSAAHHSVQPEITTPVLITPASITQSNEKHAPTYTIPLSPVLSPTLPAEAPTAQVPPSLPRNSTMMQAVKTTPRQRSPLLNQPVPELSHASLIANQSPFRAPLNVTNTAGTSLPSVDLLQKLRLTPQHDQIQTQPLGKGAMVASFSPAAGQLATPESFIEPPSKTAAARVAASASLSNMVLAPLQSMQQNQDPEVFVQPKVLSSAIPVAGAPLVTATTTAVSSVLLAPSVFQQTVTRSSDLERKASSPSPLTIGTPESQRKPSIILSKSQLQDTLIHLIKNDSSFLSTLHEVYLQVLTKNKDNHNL

Assay [17] concerns the target T7, LAT (prey, CIC format) (human) (UniProt O43561).
T7 sequence (looked up): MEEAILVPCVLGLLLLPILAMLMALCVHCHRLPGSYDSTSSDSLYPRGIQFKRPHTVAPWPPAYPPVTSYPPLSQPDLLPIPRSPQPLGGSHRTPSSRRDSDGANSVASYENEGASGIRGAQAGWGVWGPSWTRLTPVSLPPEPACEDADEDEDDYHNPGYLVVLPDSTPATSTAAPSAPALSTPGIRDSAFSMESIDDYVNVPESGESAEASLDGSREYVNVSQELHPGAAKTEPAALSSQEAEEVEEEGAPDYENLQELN

The target in assay [18] is PPP3R1 (prey, CIC format) (human) (UniProt P63098).
Chain of PPP3R1 (prey, CIC format) (human) (P63098 whole entry): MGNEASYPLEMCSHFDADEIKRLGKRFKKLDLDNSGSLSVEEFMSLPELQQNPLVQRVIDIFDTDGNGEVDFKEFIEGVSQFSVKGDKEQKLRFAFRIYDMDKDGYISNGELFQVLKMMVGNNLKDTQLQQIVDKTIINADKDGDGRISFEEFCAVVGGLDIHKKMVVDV
The target in assay [19] is T8, RB1 (prey, CIC format) (human) (UniProt P06400).
T8 sequence (looked up): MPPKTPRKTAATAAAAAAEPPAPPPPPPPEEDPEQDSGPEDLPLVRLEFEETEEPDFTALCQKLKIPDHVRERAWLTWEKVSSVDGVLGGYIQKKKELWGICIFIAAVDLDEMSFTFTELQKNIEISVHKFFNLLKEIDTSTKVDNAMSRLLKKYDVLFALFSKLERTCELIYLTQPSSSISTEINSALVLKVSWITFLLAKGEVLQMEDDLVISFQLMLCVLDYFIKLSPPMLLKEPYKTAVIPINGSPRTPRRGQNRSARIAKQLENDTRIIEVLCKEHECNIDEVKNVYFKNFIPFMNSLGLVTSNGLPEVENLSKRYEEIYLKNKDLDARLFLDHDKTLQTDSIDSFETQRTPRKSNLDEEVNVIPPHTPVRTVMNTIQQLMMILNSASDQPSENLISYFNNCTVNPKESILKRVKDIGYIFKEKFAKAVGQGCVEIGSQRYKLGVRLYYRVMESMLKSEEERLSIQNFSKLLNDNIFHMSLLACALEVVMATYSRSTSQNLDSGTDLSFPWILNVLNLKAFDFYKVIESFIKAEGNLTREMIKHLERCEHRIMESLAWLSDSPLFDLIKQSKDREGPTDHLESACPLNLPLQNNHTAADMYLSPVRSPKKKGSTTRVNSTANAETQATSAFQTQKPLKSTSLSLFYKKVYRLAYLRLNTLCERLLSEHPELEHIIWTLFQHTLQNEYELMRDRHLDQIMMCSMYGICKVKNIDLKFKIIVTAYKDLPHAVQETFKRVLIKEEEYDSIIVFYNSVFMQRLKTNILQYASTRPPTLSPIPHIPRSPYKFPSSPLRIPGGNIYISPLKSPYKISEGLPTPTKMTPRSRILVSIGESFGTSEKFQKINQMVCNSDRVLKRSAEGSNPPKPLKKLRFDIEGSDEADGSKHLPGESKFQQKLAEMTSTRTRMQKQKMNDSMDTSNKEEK

Assay [20] deals with ZBTB16 (prey, CIC format) (human) (UniProt Q05516).
Chain of ZBTB16 (prey, CIC format) (human) (Q05516 whole entry): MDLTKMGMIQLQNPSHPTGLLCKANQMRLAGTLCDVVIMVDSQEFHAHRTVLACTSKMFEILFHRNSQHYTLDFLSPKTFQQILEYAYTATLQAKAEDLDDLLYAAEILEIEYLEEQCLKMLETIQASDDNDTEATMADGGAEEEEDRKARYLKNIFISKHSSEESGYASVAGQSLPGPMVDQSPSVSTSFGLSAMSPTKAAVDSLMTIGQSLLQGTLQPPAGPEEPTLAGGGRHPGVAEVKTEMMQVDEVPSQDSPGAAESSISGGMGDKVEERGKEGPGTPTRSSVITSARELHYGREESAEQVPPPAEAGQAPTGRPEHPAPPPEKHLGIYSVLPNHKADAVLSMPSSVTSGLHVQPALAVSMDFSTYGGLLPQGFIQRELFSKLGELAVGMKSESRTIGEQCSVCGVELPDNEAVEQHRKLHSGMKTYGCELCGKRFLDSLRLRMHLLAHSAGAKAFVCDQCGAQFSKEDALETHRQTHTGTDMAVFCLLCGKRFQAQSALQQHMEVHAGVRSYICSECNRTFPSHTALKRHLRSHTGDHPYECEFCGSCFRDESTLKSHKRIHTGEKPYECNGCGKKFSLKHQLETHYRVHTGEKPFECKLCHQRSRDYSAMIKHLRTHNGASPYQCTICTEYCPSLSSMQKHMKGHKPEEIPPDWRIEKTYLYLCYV
Assay [21] addresses CGB5 (prey, CIC format) (human) (UniProt P0DN86).
For assay [22], the target named is T9, NCBP2 (prey, CIC format) (human) (UniProt P52298).
T9 sequence (looked up): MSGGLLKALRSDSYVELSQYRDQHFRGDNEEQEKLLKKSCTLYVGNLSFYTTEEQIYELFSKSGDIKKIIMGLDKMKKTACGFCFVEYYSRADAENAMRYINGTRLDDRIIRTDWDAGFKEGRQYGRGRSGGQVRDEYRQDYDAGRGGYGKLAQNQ

The target in assay [23] is CD58 (prey, CIC format) (human) (UniProt P19256).
Chain of CD58 (prey, CIC format) (human) (P19256 29-250 limits assumed): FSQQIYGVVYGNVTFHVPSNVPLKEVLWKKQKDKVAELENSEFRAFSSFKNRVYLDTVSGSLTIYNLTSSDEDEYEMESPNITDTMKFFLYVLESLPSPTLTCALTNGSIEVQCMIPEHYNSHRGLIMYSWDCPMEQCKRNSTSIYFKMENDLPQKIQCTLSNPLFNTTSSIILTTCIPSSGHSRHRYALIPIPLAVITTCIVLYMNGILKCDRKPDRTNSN
For assay [24], the target named is ARHGAP1 (prey, CIC format) (human) (UniProt Q07960).
Chain of ARHGAP1 (prey, CIC format) (human) (Q07960 whole entry): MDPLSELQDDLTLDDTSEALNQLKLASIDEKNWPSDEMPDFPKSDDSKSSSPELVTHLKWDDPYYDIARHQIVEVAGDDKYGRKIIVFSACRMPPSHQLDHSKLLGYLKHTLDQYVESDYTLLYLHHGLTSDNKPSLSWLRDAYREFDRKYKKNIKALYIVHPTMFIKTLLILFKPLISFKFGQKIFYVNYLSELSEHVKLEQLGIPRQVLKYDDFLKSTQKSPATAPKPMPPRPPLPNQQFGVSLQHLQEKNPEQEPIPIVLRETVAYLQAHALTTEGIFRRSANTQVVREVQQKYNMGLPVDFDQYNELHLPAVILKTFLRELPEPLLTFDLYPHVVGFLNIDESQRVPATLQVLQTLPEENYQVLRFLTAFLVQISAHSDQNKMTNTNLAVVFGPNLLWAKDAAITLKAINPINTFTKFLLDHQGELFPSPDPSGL

Chain of CCNA1 (prey, CIC format) (human) (P78396 whole entry): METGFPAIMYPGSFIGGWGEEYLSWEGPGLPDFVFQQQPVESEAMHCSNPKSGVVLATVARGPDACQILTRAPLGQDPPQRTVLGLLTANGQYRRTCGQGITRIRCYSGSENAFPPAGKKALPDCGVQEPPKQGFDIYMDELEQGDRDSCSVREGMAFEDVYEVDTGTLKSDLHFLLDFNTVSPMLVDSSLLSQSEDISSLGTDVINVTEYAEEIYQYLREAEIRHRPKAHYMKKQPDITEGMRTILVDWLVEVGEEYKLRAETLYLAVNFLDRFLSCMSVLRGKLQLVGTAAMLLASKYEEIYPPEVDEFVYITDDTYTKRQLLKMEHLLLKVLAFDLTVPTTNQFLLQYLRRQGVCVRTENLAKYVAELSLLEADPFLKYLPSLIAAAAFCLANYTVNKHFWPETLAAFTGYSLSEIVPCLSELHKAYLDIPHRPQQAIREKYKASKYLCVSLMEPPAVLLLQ
Chain of PCNA (prey, CIC format) (human) (P12004 whole entry): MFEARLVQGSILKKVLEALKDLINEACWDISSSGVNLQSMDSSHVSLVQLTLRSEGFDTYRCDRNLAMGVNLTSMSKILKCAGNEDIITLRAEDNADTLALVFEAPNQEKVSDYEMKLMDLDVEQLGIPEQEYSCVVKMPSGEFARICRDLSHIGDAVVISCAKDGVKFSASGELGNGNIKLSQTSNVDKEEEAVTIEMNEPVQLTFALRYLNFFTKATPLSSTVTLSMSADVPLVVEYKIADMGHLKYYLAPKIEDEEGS
Chain of HDAC1 (bait, IN format) (Q13547 whole entry): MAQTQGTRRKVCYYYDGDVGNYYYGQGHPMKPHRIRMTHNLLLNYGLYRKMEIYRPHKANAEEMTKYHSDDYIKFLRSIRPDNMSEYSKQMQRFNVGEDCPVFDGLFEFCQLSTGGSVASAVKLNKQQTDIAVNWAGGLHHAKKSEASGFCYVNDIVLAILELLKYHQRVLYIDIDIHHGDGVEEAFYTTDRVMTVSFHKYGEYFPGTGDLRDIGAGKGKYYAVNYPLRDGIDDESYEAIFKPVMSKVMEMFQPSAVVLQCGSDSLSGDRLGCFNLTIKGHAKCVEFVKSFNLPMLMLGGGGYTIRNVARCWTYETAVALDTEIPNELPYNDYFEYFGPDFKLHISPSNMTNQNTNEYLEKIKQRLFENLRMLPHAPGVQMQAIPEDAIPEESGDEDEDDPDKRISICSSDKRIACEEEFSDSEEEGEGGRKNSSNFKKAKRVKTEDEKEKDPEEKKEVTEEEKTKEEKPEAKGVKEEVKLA
Chain of CKS1B (prey, CIC format) (human) (P61024 whole entry): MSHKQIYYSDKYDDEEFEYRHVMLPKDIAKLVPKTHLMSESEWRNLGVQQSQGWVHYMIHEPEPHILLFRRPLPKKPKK
Chain of BCL2L1 (prey, CIC format) (human) (Q07817 whole entry): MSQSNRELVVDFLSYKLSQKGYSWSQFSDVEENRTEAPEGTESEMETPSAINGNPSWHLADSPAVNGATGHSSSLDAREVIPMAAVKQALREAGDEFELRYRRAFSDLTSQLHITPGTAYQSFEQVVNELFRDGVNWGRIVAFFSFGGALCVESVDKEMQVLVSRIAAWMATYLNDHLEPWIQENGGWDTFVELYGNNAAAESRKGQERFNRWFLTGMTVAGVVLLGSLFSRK

Regarding “CBLB (bait, IN format) (from UniProt Q13191 1-982)”, the PLU mean amounted to 0.272 in assay [1] and 2.61 in assay [2].
“MAFG (bait, IN format) (from UniProt O15525 1-162)”: the figures for the PLU mean in [3], in assay [4] and in assay [5] were 0.459, 1.72 and 0.341, respectively.
As to “ERBB3 (bait, IN format) (from UniProt P21860 20-1342) (receptor)”, the PLU mean in assay [6] was 0.28; in [7], 1.22; in assay [8], 0.0812.
Regarding “MCM2 (bait, IN format) (from UniProt P49736 1-904)”, the PLU mean in [9] is 0.35; in assay [10], 0.102; in assay [11] it was 0.938.
As to “CDKN1B (bait, IN format) (from UniProt P46527 1-198)”, the PLU mean amounted to 0.686 in [12] and 0.229 in assay [13].
For “HBA2 (bait, IN format) (from UniProt P69905 1-142)”, the PLU mean in assay [14] amounted to 0.171.
In the case of “FEN1 (bait, IN format) (from UniProt P39748 1-380) (enzyme)”, the PLU mean in assay [15] came to 0.342; in assay [8], 0.349.
Take “SMAD4 (bait, IN format) (from UniProt Q13485 1-552)”: the values for the PLU mean in [16] and in assay [17] were 0.398 and 0.215, respectively.
As for “HDAC1 (bait, IN format) (from UniProt Q13547 1-482) (enzyme)”, the PLU mean in assay [18] came out at 0.247; in [19] it was 0.54; in [20], 0.492; in [17] it was 0.222.
Regarding “CGA (bait, IN format) (from UniProt P01215 25-116) (ligand)”, the PLU mean in assay [21] came out at 0.435; in assay [22] it was 0.0363; in [23] it was 0.131; in assay [11], 0.0738.
On to “RHOA (bait, IN format) (from UniProt P61586 1-193)”, for which the PLU mean came out at 0.36 in [12], 0.691 in [20] and 0.486 in assay [24].
